Our source for the localisation_or_trafficking values is publication PMC6374115.

A short description of the series: live-cell confocal, cytosolic distribution. Particulars: glycan lost; control: WT YFP-cryAB.

B1: cryAB (crystallin alphaB / HspB5): T170A (protein)
parent chain: MDIAIHHPWIRRPFFPFHSPSRLFDQFFGEHLLESDLFPTSTSLSPFYLRPPSFLRAPSWFDTGLSEMRLEKDRFSVNLDVKHFSPEELKVKVLGDVIEVHGKHEERQDEHGFISREFHRKYRIPADVDPLTITSSLSSDGVLTVNGPRKQVSGPERTIPITREEKPAVTAAPKK
As to B1, the localisation_or_trafficking result is “changes”.
